Source: the RNAGym collection of RNA variant scans (doi:10.7554/elife.90254)

B1: OR4K15 (parent)
chain: GUUAACGGUCAUAGGCCAUGGAAACUAGGAGCACCAUUUCGCUGCCAGUGAAGAAAUGAACAAAGAAAAUCUGGGCCAGGCAGGCAUCAAAAGAAAUAGUCUUGCGCUCAACCAGAAAGUCUGUAAUCAUUUUAAGGGUA
B2: LINE1-full (parent)
chain: UACGUAGGUGGUUUUCCCCUGAUAGUGCUAAGGGGGCCUGGAAGUUUGGACUGGGCAGAGCUCAACACAGCGUGGCAAAGUGGCUGUGGCUAGACUGCCUCUCUGGAUUCCUCGUCACUCAGCAGGGCAUCUCUGAGAGAAAUGCC

Variants of: B1
Experiment: self-cleavage, relative activity (ratio to wild type); higher = more cleavage; in vitro, sequencing; the parent is a self-cleaving ribozyme
GUUAACGGUCAUAGGCCAUGGAAACUAGGAGCACCAUUUCGCUGCCAGUGAAGAAAUGUACAAAGAAAAUCUGGGCCCGGCAGGCAUCAAAAGAAAUAGUCUUGCGCUCAACCAGAAAGUCUGUAAUCAUUUUAAGGGUA [A59U A78C] gave a self-cleavage of 0.4. In the case of GUUAACGGUCAUAGGCCAUGGAAACUAGGAGCACCAUUUCGCUGCCAGUGAAGAAAUGAACAAAGAAAAUCCGGGCCAGGCAGGCAUCAAGAGAAAUAGUCUUGCGCUCAACCAGAAAGUCUGUAAUCAUUUUAAGGGUA [U72C A91G], the self-cleavage is reported as 0.05. For GUUAACGGUCAUAGGCCAUGGAAACUAGCAGCACCAUUUCGCUGCCAGUGAAGAAAUGAACAAAGAAAAUCUGGGCCAGGCAGGCAUCAAGAGAAAUAGUCUUGCGCUCAACCAGAAAGUCUGUAAUCAUUUUAAGGGUA [G29C A91G], the self-cleavage was 1.08. In the case of GUUAACGGUCAUAGGCCAUGGAAACUAGGAGCACCAUUUCGCUGCCAGUGAAGAAAUGAACAAAGAAAAUCUGGGCCAGGCAGGCAUCAAAAGAAAUAGUCUUGCGCUCGACCAGAUAGUCUGUAAUCAUUUUAAGGGUA [A110G A117U], the self-cleavage is reported as 0.06. GUUAACGGUCAUAGGCCAUGGAAACUAGGAGCUCCAUUUCGCUGCCAGUGAAGAAAUGAACAAAGUAAAUCUGGGCCAGGCAGGCAUCAAAAGAAAUAGUCUUGCGCUCAACCAGAAAGUCUGUAAUCAUUUUAAGGGUA [A33U A66U] gave a self-cleavage of 1.62. In the case of GUUAACGGUCAUAGGCCAUGGAAACUAGGAGCACCAUAUCGCUGCCAGUGAAGAAAUGAACAAAGAAAAUCUGGGCCAGGCAGGCAUCAAAAGAAACAGUCUUGCGCUCAACCAGAAAGUCUGUAAUCAUUUUAAGGGUA [U38A U97C], the self-cleavage is reported as 1.67. Variant GCUAACGGUCAUAGGCCAUGGAAACUAGGAGCACCAUUUCGCUGCCAGUGACGAAAUGAACAAAGAAAAUCUGGGCCAGGCAGGCAUCAAAAGAAAUAGUCUUGCGCUCAACCAGAAAGUCUGUAAUCAUUUUAAGGGUA [U2C A52C] has a self-cleavage of 1.25. In the case of GUUAACGGUCAUAGGCCAUGGAAACUAGGAACACCAUUUCGCUGCCAGUGAAGAAAUGUACAAAGAAAAUCUGGGCCAGGCAGGCAUCAAAAGAAAUAGUCUUGCGCUCAACCAGAAAGUCUGUAAUCAUUUUAAGGGUA [G31A A59U], the self-cleavage is reported as 0.76.

Variants of: B2
Experiment: as above
In the case of UACGUAGGUGGUUUUCCCCUGAUAGUGCUAAGGGGGCCUGGAAGUUUGGACUGGGCAGAGCUCAACACAGCGUGGCAAAGUGGCUGUGGCUAGACUGCCUCUCUGGAUUCCUCGUCACUCAGCAGGGCAUCUCUGAGAGAAGUGCC [A142G], the self-cleavage is reported as 1.21. For UACGUAGGUGGUUUUCCCCUGAUAGUGCUAAGGGGGCCUGGAAGUUUGGACUGGGCAGAGCUCAACACAGCGUGGCAAAGUGGCUGUGGCUAGACUGCCUCUCUGGAUUCCUCGUCACUCAGCAGGGCAUCUCUGAGAGAACUGCC [A142C], the self-cleavage was 0.53. Variant UACGUAGGUGGUUUUCCCCUGAUAGUGCUAAGGGGGCCUGGAAGUUUGGACUGGGCAGAGCUCAACACAGCGUGGCAAAGUGGCUGUGGCUAGACUGCCUCUCUGGAUUCCUCGUCACUCAGCAGGGCAUCUCUGAGAGAAUUGCC [A142U] has a self-cleavage of 1.22. Work on UACGUAGGUGGUUUUCCCCUGAUAGUGCUAAGGGGGCCUGGAAGUUUGGACUGGGCAGAGCUCAACACAGCGUGGCAAAGUGGCUGUGGCUAGACUGCCUCUCUGGAUUCCUCGUCACUCAGCAGGGCAUCUCUGAGAGACCUGCC [A141C A142C] yielded a self-cleavage of 0.71. For UACGUAGGUGGUUUUCCCCUGAUAGUGCUAAGGGGGCCUGGAAGUUUGGACUGGGCAGAGCUCAACACAGCGUGGCAAAGUGGCUGUGGCUAGACUGCCUCUCUGGAUUCCUCGUCACUCAGCAGGGCAUCUCUGAGAGAAAAACC [U143A G144A], the self-cleavage was 1.4. With UACGUAGGUGGUUUUCCCCUGAUAGUGCUAAGGGGGCCUGGAAGUUUGGACUGGGCAGAGCUCAACACAGCGUGGCAAAGUGGCUGUGGCUAGACUGCCUCUCUGGAUUCCUCGUCACUCAGCAGGGCAUCUCUGAGAGCAAUGCC [A140C] the self-cleavage was 0.65. For UACGUAGGUGGUUUUCCCCUGAUAGUGCUAAGGGGGCCUGGAAGUUUGGACUGGGCAGAGCUCAACACAGCGUGGCAAAGUGGCUGUGGCUAGACUGCCUCUCUGGAUUCCUCGUCACUCAGCAGGGCAUCUCUGAGAGUAAUGCC [A140U], the self-cleavage was 1.26. UACGUAGGUGGUUUUCCCCUGAUAGUGCUAAGGGGGCCUGGAAGUUUGGACUGGGCAGAGCUCAACACAGCGUGGCAAAGUGGCUGUGGCUAGACUGCCUCUCUGGAUUCCUCGUCACUCAGCAGGGCAUCUCUGAGAGGAAUGCC [A140G] gave a self-cleavage of 1.07. With UACGUAGGUGGUUUUCCCCUGAUAGUGCUAAGGGGGCCUGGAAGUUUGGACUGGGCAGAGCUCAACACAGCGUGGCAAAGUGGCUGUGGCUAGACUGCCUCUCUGGAUUCCUCGUCACUCAGCAGGGCAUCUCUGAGAGAGGUGCC [A141G A142G] the self-cleavage was 1.45. UACGUAGGUGGUUUUCCCCUGAUAGUGCUAAGGGGGCCUGGAAGUUUGGACUGGGCAGAGCUCAACACAGCGUGGCAAAGUGGCUGUGGCUAGACUGCCUCUCUGGAUUCCUCGUCACUCAGCAGGGCAUCUCUGAGAGAGUUGCC [A141G A142U] showed a self-cleavage of 1.36. Variant UACGUAGGUGGUUUUCCCCUGAUAGUGCUAAGGGGGCCUGGAAGUUUGGACUGGGCAGAGCUCAACACAGCGUGGCAAAGUGGCUGUGGCUAGACUGCCUCUCUGGAUUCCUCGUCACUCAGCAGGGCAUCUCUGAGAGAAGUGUC [A142G C145U] has a self-cleavage of 1.11. For UACGUAGGUGGUUUUCCCCUGAUAGUGCUAAGGGGGCCUGGAAGUUUGGACUGGGCAGAGCUCAACACAGCGUGGCAAAGUGGCUGUGGCUAGACUGCCUCUCUGGAUUCCUCGUCACUCAGCAGGGCAUCUCUGAGAGAAGGGCC [A142G U143G], the self-cleavage was 0.16.
